Data taken from paper PMC4259341.

Assay: western blot of conditioned medium, 24 h
Conditions: glycan lost; control: wild type

With antithrombin: S137A the expression_or_secretion was “no change”.
For antithrombin: S137T, the expression_or_secretion was “no change”.
